Publication PMC6152936 (Cell reports, 2018)

Target: the molecule itself
Experiment: SAXS

B1: TFG N terminus (amino acids 1-138), wild type (domain or fragment, human, UniProt Q92734 1-138, looked up)
chain: MNGQLDLSGKLIIKAQLGEDIRRIPIHNEDITYDELVLMMQRVFRGKLLSNDEVTIKYKDEDGDLITIFDSSDLSFAIQCSRILKLTLFVNGQPRPLESSQVKYLRRELIELRNKVNRLLDSLEPPGEPGPSTNIPEN
stoichiometry N: 8
